Test results: patent US8361965B2, “Recombinant chimeric protein of neutrophil inhibitory factor and hirugen, and pharmaceutical composition thereof” (Lunan Pharmaceutical Group Corporation, priority 2008, dated 2013)

Legend:
leukocyte adhesion = experiment: anti-leukocyte adhesion activity, in vitro comparative analysis; format: cell-based
[1] = system: experimental cerebral hematoma in rats; experiment: effects on experimental cerebral hematoma in rats; format: in vivo, SD rats; parameters: key to behavioral score: neurologic defect score, full score 11; higher = more severe disorder; settings: 2 mg/kg bid caudal vein; for behavioral score: full score 11
Method: SD rats were randomly divided into 4 groups (8 animals per group), including model group, NHH group, NIF group and TNHH group. The rats in each group were anesthetized by chloral hydrate, and then 0.1 ml blood was collected by amputation of tail. The rats were fixed in a stereotaxic apparatus. Median incision of scalp was performed and the periosteum was cut open to expose bregma. Subsequently, a small hole with a diameter of 1 mm was perforated for needle insertion of microsyringe fixed on the stereotaxic apparatus with insertion depth of 5.8 mm (i.e to the position of caudate nucleus) at the site which was 1 mm rearward to the bregma and 3 mm left to the midline, and then 0.1 ml autoblood was injected slowly. Neurological functional defect score was immediately evaluated based on the evaluation criterion after the animal got conscious. The animal with behavior score less than 11 was selected in this study. Behavior score evaluation was continuously carried out after the establishment of model till the end of the experiment.
The neurologic function defect score was evaluated at 5 time points of 4 h, 12 h, 24 h, 48 h and 72 h after the model establishment. Changes of brain water content and histopathological observation were performed at 72 h after the model establishment on sacrificed rats.
Corresponding medicaments (2 mg/kg, bid) were administered through the caudal vein to animals with administration volume of 1 ml/100 g in each group after model animal was successfully established (according to the score less than 11 based on the behavior score evaluation), while the model group received physiological saline in the corresponding volume.
The brain was taken out immediately after the sacrifice of animals, and then […] ectocinerea (cortex was removed) at the edge of haematoma was collected. The brain water content was determined using dry and wet method based on the following formula: Brain water content=(wet weight−dry weight)/wet weight×100%
The brain was immediately taken out by decollation at selected time points, and it was sliced up to be 2 mm thick along the coronal section and then fixed in 10% formaldehyde. The slices were stained by regular HE and mounted. Then the pathological changes occurred in pathological region and the neighboring brain tissues were observed.
Evaluation was performed at the time of 4 h, 12 h, 24 h, 48 h and 72 h after surgery. The method was described as follows:
The flection of forelimbs was observed by lifting the rat by its tail. If the forelimbs symmetrically extended toward the floor, the score was 0. While if wrist flection, or elbow inflection, or internal rotation of shoulder, or both elbow inflection and internal rotation of shoulder occurred to forelimbs of the rat on the opposite side of the surgery part, it was evaluated as scores of 1, 2, 3 and 4, respectively.
The animal was placed on flat floor, and then both shoulders were pushed to move towards the opposite side to examine the resistance. If the resistances on both sides were equal and forceful, it was evaluated as 0. While if the resistance decreased slightly, mildly or severely when pushed to the opposite side of the surgery part, it was evaluated as 1, 2 or 3, respectively.
Both forelimbs of the animal were placed on a metal mesh to observe the muscular tension. The rat with equal and forceful muscular tension of both forelimbs was evaluated as 0. In the same way, the rat was evaluated as 1, 2 or 3, respectively with the reduction of muscular tension on the opposite side of the surgery part mentioned above.
The animal tended to keep turning around to one side was evaluated as 1. Based on the evaluation criterion (with full score of 11), the higher the score was evaluated, the more severe the behavior disorder was.

blood coagulation system = experiment: effects on blood coagulation system of New Zealand rabbits in vivo (APTT, PT, TT); parameters: species or system New Zealand rabbit; PT: unit not given beside the values; APTT / TT: unit not given here
Method: Medicaments were administrated via intravenous injection from marginal ear vein, and 1.8 ml blood was harvested from marginal ear veins at the time of before administration (0 min), and 10 min, 30 min, 60 min, 120 min and 240 min after administration, respectively (the time for injecting is 2 min). 3.2% sodium citrate (9:1) was added for anticoagulation and then mixed and centrifuged at 3000 rpm/min for 3 min. The plasma was send to Department of Clinical Laboratory, Southwest Hospital for determining blood coagulation indexes (APTT, TT and PT) with a full automatic coagulation analyzer and the difference before and after administration was obtained by comparison.

[2] = TNHH 3.375 mg/kg i.v., 0 min (before administration)
[3] = TNHH 6.675 mg/kg i.v., 0 min (before administration)
[4] = dose in great excess of the effective dose

B1: TNHH: recombinant chimeric protein of neutrophil inhibitory factor and hirugen, Met-NIF-GGGGG-FPRPGSGG-Hirugen (SEQ ID NO: 3), expressed in E. coli (protein)
chain: MNEHNLRCPQNGTEMPGFNDSIRLQFLAMHNGYRSKLALGHISITEESESDDDDDFGFLPDFAPRASKMRYLEYDCEAEKSAYMSARNCSDSSSPPEGYDENKYIFENSNNISEAALKAMISWAKEAFNLNKTKEGEGVLYRSNHDISNFANLAWDAREKFGCAVVNCPLGEIDDETNHDGETYATTIHVVCHYPKINKTEGQPIYKVGTPCDDCSEYTKKADNTTSADPVCIPDDGVCFIGSKADYDSKEFYRFRELGGGGGFPRPGSGGNGDFEEIPEEYL
modifications: N-terminal Met
- titer against leukocyte adhesion (leukocyte adhesion; TNHH 1.0 mg/ml): 720 unit/ml
- anti-leukocyte adhesion activity (leukocyte adhesion; in vitro): 750 Unit/mg
- behavioral score ([1]; 4 h): 2.00 ± 1.07
- behavioral score ([1]; 12 h): 2.00 ± 0.76
- behavioral score ([1]; 24 h): 2.25 ± 0.46
- behavioral score ([1]; 48 h): 2.12 ± 0.64
- Brain water content (%) ([1]; 72 h, dry and wet method): 78.28 ± 1.97 %
- behavioral score ([1]; 72 h): 2.88 ± 1.46
- APTT (blood coagulation system; [2]): 36.45 ± 6.60
- PT (blood coagulation system; [2]): 6.78 ± 0.28
- TT (blood coagulation system; [2]): 15.57 ± 1.09
- APTT (blood coagulation system; TNHH 3.375 mg/kg i.v., 10 min): 37.38 ± 6.35
- PT (blood coagulation system; TNHH 3.375 mg/kg i.v., 10 min): 6.90 ± 0.21
- TT (blood coagulation system; TNHH 3.375 mg/kg i.v., 10 min): 23.23 ± 2.47
- APTT (blood coagulation system; TNHH 3.375 mg/kg i.v., 30 min): 31.97 ± 2.11
- PT (blood coagulation system; TNHH 3.375 mg/kg i.v., 30 min): 6.85 ± 0.23
- TT (blood coagulation system; TNHH 3.375 mg/kg i.v., 30 min): 16.13 ± 1.31
- APTT (blood coagulation system; TNHH 3.375 mg/kg i.v., 60 min): 31.93 ± 2.39
- PT (blood coagulation system; TNHH 3.375 mg/kg i.v., 60 min): 6.78 ± 0.22
- TT (blood coagulation system; TNHH 3.375 mg/kg i.v., 60 min): 14.75 ± 1.44
- APTT (blood coagulation system; TNHH 3.375 mg/kg i.v., 120 min): 30.52 ± 6.86
- PT (blood coagulation system; TNHH 3.375 mg/kg i.v., 120 min): 6.87 ± 0.32
- TT (blood coagulation system; TNHH 3.375 mg/kg i.v., 120 min): 14.02 ± 0.79
- APTT (blood coagulation system; TNHH 3.375 mg/kg i.v., 240 min): 35.65 ± 9.36
- PT (blood coagulation system; TNHH 3.375 mg/kg i.v., 240 min): 7.02 ± 0.24
- TT (blood coagulation system; TNHH 3.375 mg/kg i.v., 240 min): 14.65 ± 1.14
- APTT (blood coagulation system; [3]): 44.25 ± 5.39
- PT (blood coagulation system; [3]): 6.88 ± 0.17
- TT (blood coagulation system; [3]): 15.97 ± 1.42
- APTT (blood coagulation system; TNHH 6.675 mg/kg i.v., 10 min): 39.87 ± 4.98
- PT (blood coagulation system; TNHH 6.675 mg/kg i.v., 10 min): 7.17 ± 0.36
- TT (blood coagulation system; TNHH 6.675 mg/kg i.v., 10 min): 33.57 ± 4.47
- APTT (blood coagulation system; TNHH 6.675 mg/kg i.v., 30 min): 37.98 ± 4.77
- PT (blood coagulation system; TNHH 6.675 mg/kg i.v., 30 min): 7.12 ± 0.47
- TT (blood coagulation system; TNHH 6.675 mg/kg i.v., 30 min): 21.63 ± 1.71
- APTT (blood coagulation system; TNHH 6.675 mg/kg i.v., 60 min): 36.17 ± 6.76
- PT (blood coagulation system; TNHH 6.675 mg/kg i.v., 60 min): 7.17 ± 0.40
- TT (blood coagulation system; TNHH 6.675 mg/kg i.v., 60 min): 15.55 ± 0.95
- APTT (blood coagulation system; TNHH 6.675 mg/kg i.v., 120 min): 38.95 ± 8.85
- PT (blood coagulation system; TNHH 6.675 mg/kg i.v., 120 min): 7.62 ± 0.64
- TT (blood coagulation system; TNHH 6.675 mg/kg i.v., 120 min): 15.00 ± 1.51
- APTT (blood coagulation system; TNHH 6.675 mg/kg i.v., 240 min): 38.03 ± 9.11
- PT (blood coagulation system; TNHH 6.675 mg/kg i.v., 240 min): 7.97 ± 0.99
- TT (blood coagulation system; TNHH 6.675 mg/kg i.v., 240 min): 13.33 ± 0.73
- extension time of PT (blood coagulation system; TNHH 6.675 mg/kg i.v., vs 0 min): less than 3 seconds
- effects on the endogenous blood coagulation pathway (blood coagulation system; [4]): no effects
- effects on the exogenous blood coagulation pathway and fibrinolytic system (blood coagulation system; [4]): some effects
